Laboratory results: patent US20240417458A1 (DISC MEDICINE, published 2024)

T1: soluble human RGMc (human, UniProt Q6ZVN8 36-400)
T1 construct: also called huRGMc; soluble hRGMc
T1 sequence: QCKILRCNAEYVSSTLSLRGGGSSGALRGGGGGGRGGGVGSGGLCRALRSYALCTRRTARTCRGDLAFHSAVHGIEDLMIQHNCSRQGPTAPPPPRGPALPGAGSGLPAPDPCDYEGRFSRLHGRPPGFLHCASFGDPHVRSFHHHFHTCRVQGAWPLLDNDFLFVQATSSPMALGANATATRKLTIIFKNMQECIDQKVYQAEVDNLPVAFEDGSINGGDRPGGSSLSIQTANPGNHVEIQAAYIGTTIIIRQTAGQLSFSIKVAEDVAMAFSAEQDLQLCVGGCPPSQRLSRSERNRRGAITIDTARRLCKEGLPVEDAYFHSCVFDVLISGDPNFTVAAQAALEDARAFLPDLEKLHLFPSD

T2: soluble rat RGMa (rat, UniProt D4A188 48-421)
T2 construct: Soluble antigen in BIAcore
T2 sequence: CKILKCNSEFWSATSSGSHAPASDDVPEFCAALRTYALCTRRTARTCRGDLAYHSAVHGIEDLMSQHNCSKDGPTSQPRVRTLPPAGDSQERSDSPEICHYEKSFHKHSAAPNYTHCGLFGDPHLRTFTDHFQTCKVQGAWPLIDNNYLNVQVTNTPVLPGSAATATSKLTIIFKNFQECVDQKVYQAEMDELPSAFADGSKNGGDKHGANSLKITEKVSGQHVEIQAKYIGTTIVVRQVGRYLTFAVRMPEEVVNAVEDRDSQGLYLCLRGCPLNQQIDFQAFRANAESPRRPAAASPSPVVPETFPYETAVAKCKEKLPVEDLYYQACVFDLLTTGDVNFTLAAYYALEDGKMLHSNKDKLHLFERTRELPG

T3: soluble human RGMa (human, UniProt Q96B86 48-422, limits assumed)
T3 construct: Soluble antigen in BIAcore; also called huRGMa; repulsive guidance molecule A
T3 sequence (looked up): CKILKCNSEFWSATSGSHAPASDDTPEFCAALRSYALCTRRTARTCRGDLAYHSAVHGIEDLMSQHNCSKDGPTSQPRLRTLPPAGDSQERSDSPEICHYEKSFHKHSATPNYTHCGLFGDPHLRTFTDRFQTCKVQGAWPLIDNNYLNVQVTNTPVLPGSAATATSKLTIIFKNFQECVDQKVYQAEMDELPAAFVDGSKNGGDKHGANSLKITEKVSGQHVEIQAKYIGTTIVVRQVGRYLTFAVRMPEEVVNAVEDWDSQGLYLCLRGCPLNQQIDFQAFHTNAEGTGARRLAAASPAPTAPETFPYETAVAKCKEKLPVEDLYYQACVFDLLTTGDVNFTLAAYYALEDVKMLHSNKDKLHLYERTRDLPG

T4: membrane-bound human RGMc (human, UniProt Q6ZVN8 36-400)
T4 sequence: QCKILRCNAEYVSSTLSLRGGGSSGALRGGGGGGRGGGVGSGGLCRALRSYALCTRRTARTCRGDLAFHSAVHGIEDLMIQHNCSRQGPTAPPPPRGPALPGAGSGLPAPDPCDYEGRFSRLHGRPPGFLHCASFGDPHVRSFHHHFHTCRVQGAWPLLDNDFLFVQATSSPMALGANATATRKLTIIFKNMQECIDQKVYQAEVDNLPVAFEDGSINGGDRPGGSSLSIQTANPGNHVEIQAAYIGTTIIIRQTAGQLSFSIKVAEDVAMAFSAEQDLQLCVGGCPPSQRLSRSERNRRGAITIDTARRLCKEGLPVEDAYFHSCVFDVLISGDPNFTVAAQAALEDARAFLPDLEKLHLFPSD


Tests used:
[1] = target: T1, soluble human RGMc; test: SPR (BIAcore);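 further: Anti-HJV antibodies, binding affinity to soluble human RGMc measured by BIAcore surface plasmon resonance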
Procedure: (§1) Binding affinities of the anti-HJV antibodies to soluble human RGMa, Rat RGMa and human RGMc were measured by BIAcore analysis.

[2] = target: T2, soluble rat RGMa; test: SPR (BIAcore);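 further: binding kinetics and affinity of anti-HJV antibodies toward soluble rat RGMa, determined by SPR on a BIAcore instrument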
Procedure: as §1

[3] = target: T3, soluble human RGMa; test: SPR (BIAcore);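 further: Anti-HJV antibodies tested for binding against soluble human RGMa by surface plasmon resonance on a BIAcore instrument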
Procedure: as §1

[4] = target: T1, soluble human RGMc; test: SPR (BIAcore), soluble hRGMc; summary table
[5] = target: T4, membrane-bound human RGMc; test: cell-based or functional assay
[6] = target: T4, membrane-bound human RGMc; test: cell-based or functional assay; remark: listed apart in the source
[7] = target: T4, membrane-bound human RGMc; test: cell-based or functional assay; remark: listed apart in the source

Kd [1]	koff [1]	kon [1]	Kd [2]	koff [2]	kon [2]	Kd [3]	koff [3]	kon [3]	Kd [4]	koff [4]	kon [4]	IC50 (nM), BMP reporter assay for RGMc (BRE-Luc, HEK293) [5]	IC50 (read off the curve) [6]	Potency on membrane hRGMc (RGMc/BMP reporter assay), IC50 [7]	Binder
0.16 nM	0.00165 s⁻¹	1.08e+07 M⁻¹ s⁻¹	0.031 nM	3.6e-05 s⁻¹	1.2e+06 M⁻¹ s⁻¹	0.038 nM	6.7e-05 s⁻¹	1.8e+06 M⁻¹ s⁻¹	–	–	–	–	–	–	hHA-001 (antibody, human IgG1, kappa, L234A L235A, V domains shown, hIgG1 constant region with L234A, L235A, kappa) VH: EVQLVESGGGLVQPGGSLRLSCAASGFTFSNYGMNWIRQAPGKGLEWIGMIYYDSSEKHYADSVKGRFTISRDNSKNTLYLQMNSLRAEDTAVYYCAKGTTPDYWGQGTMVTVSS VL: DVVLTQSPLSLPVTLGQPASISCRSSQSLETSDGDTFLEWFQQRPGQSPRLLIYEVSTRFSGVPDRFSGSGSGTDFTLKISRVEAEDVGVYYCFQVTHDPMTFGQGTKLEIKR
0.3 nM	0.0024 s⁻¹	8.1e+06 M⁻¹ s⁻¹	0.036 nM	3.1e-05 s⁻¹	870000 M⁻¹ s⁻¹	0.12 nM	0.00014 s⁻¹	1.1e+06 M⁻¹ s⁻¹	–	–	–	–	–	–	hHA-003 (antibody, human IgG1, kappa, L234A L235A, V domains shown, hIgG1 L234A, L235A, kappa) VH: EVQLVESGGGLVQPGGSLRLSCAASGFTFSNYGMNWIRQAPGKGLEWIGMIYYDSSEKHYADSVKGRFTISRDNSKNTLYLQMNSLRAEDTAVYYCAKGTTPDYWGQGTMVTVSS VL: DVVLTQSPLSLPVTLGQPASISCRSSQSLETSDGDTFLEWFQQRPGQSPRLLIYEVSNRFSGVPDRFSGSGSGTDFTLKISRVEAEDVGVYYCFQVTHDPVTFGQGTKLEIKR
0.71 nM	0.0107 s⁻¹	1.55e+07 M⁻¹ s⁻¹	0.31 nM	0.00021 s⁻¹	680000 M⁻¹ s⁻¹	0.47 nM	0.0004 s⁻¹	860000 M⁻¹ s⁻¹	0.71 nM	0.0107 s⁻¹	1.55e+07 M⁻¹ s⁻¹	1.36 nM	~2 nM	1.36 nM	hHA-009 (antibody, human IgG1, kappa, L234A L235A, V domains shown, hIgG1 L234A, L235A, kappa) VH: EVQLVESGGGLVQPGGSLRLSCAASGFTFSNYGMNWVRQAPGKGLEWIGMIYYDSSEKHYADSVKGRFTISRDNSKNTLYLQMNSLRAEDTAVYYCAKGTTPDYWGQGTMVTVSS VL: DVVLTQSPLSLPVTLGQPASISCRSSQSLADSDGDTFLHWFQQRPGQSPRLLIYAVSHRFSGVPDRFSGSGSGTDFTLKISRVEAEDVGVYYCFQATHDPVTFGQGTKLEIKR
0.225 nM	0.0017 s⁻¹	7.65e+06 M⁻¹ s⁻¹	0.053 nM	5.5e-05 s⁻¹	1e+06 M⁻¹ s⁻¹	0.037 nM	5e-05 s⁻¹	1.4e+06 M⁻¹ s⁻¹	–	–	–	–	–	–	hHA-002 (antibody, human IgG1, kappa, L234A L235A, V domains shown, hIgG1 L234A, L235A, kappa) VH: EVQLVESGGGLVQPGGSLRLSCAASGFTFSNYGMNWIRQAPGKGLEWIGMIYYDSSEKHYADSVKGRFTISRDNSKNTLYLQMNSLRAEDTAVYYCAKGTTPDYWGQGTMVTVSS VL: DVVLTQSPLSLPVTLGQPASISCRSSQSLETSDGDTFLEWFQQRPGQSPRLLIYEVSSRFSGVPDRFSGSGSGTDFTLKISRVEAEDVGVYYCMQVTHDPLTFGQGTKLEIKR
